Measured values from patent publication US6926883B1, “Group (VII) transition-metal complexes with multidentate aminopolycarboxylate ligands and a kit for producing them” (Mallinckrodt Inc, priority 1999, dated 2005).

Columns and labels:
[1] = in vivo; design: species or system Lewis rats; conditions: male, Lewis, rat, iv, 50 uCi, total radioactivity
Method: (§1) These studies were performed to evaluate the biodistribution and imaging potential of these compounds in Lewis rats bearing CA20948 rat pancreatic tumor implants. For each study, six (6) male Lewis rats bearing CA20948 tumor implants were anesthetized with Metofane gas and injected via the jugular vein with 200 μL (using the compounds of Example 2) or 50 μL (using the compound of Example 3) of test article containing ˜50 μCi of activity. The animals were imaged for 100K counts under a gamma camera at 30 minute (n=3) and 4 hours (n=3) post injection after which time they were sacrificed and the following tissues removed for assay: blood, liver, kidneys, muscle, spleen, pancreas, small intestines, adrenals and tumor. The data are presented as % injected dose per gram and % injected dose per whole organ. The comparative data are also represented graphically.

[2] = system: CA20948 rat pancreatic tumor implants; experiment: in vivo; design: species or system Lewis rats
Method: as §1

[3] = design: species or system Lewis rats; conditions: rat, in vivo
Method: During the general biodistribution studies, one additional animal per study was ligated to prevent urination prior to injection. The animal was kept anesthetized for 3 hours post injection, and was subsequently sacrificed, urine removed. The volume and activity of the urine was measured, and a sample was analyzed by HPLC using the method described above.

[4] = in vivo; assay type: in vivo, Lewis rats; conditions: Lewis, rat, in vivo, total radioactivity
Method: (§2) Two rats for each group were used. Group 1 received 500 μL PBS administered subcutaneously in the nape of the neck 30 minutes prior to the injection of [^99mTc(CO)3(DTPA′-Y^3-Octreotate)]. Group 2 received 350 μg Y^3-Octreotate in 500 μL phosphate buffered saline (PBS) administered subcutaneously in the nape of the neck 30 minutes prior to the injection of [^99mTc(CO)3(DTPA′-Y^3-Octreotate)].
(§3) 30 minutes after injection of the cold peptide or saline control, the animals were anesthetized with Metofane gas and injected with 50 μL (50 μCi) of [^99mTc(CO)3(DTPA′-Y^3-Octreotate)]. At three hours post injection the animals were sacrificed, blood samples taken, and then the rats were scintigraphed for 100K counts (FIG. 3). At the conclusion of the scintigraphy, the animals were necropsied, and the following tissues removed for radioassay: liver, kidneys, muscle, spleen, heart, pancreas, adrenals, and tumor. The data were calculated as % injected dose per gram and % injected dose per whole organ.

[5] = molecular target: T1, SST-2 Receptors (Rattus norvegicus, UniProt P30680); experiment: in vivo; assay type: in vivo, Lewis rats; conditions: 350 μg cold Y3-Octreotate 30 minutes prior; three hours post injection
T1 construct: from tissue; host or cells: Lewis rats bearing CA20948 tumor implants
Method: as §2, §3

T1 sequence (P30680 whole entry): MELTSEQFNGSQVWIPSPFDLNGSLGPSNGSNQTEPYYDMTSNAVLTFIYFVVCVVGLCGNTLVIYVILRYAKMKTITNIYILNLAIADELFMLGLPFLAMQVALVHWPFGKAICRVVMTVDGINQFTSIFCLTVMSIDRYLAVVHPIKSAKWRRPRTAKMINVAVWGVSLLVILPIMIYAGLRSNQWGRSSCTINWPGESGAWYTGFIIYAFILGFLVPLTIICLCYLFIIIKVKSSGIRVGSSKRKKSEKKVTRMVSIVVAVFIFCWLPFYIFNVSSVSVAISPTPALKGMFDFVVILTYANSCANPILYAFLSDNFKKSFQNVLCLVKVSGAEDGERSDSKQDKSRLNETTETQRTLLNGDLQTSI

C[C@@H](O)[C@H](NC(=O)[C@@H]1CSSC[C@H](NC(=O)[C@@H](Cc2ccccc2)NC(=O)CN(CCN(CCN(CC(=O)O)CC(=O)O)CC(=O)O)CC(=O)O)C(=O)N[C@@H](Cc2ccc(O)cc2)C(=O)N[C@H](Cc2c[nH]c3ccccc23)C(=O)N[C@@H](CCCCN)C(=O)N[C@@H]([C@@H](C)O)C(=O)N1)C(=O)O [MP-2138, Tc-99m(CO)3-n-DTPA-Tyr-3-Octreotate, metal not drawn]
tissue uptake at 0.5 h ([1]; Blood % ID/g): 0.735 ± 0.027 %ID/g
tissue uptake at 4 h ([1]; Blood % ID/g): 0.218 ± 0.01 %ID/g
tissue uptake at 0.5 h ([1]; Kidney % ID/g): 5.282 ± 0.014 %ID/g
tissue uptake at 4 h ([1]; Kidney % ID/g): 5.703 ± 0.052 %ID/g
tissue uptake at 0.5 h ([1]; Liver % ID/g): 0.567 ± 0.015 %ID/g
tissue uptake at 4 h ([1]; Liver % ID/g): 0.516 ± 0.034 %ID/g
tissue uptake at 0.5 h ([1]; Pancreas % ID/g): 1.56 ± 0.11 %ID/g
tissue uptake at 4 h ([1]; Pancreas % ID/g): 1.76 ± 0.089 %ID/g
tissue uptake at 0.5 h ([1]; Tumor % ID/g): 0.847 ± 0.078 %ID/g
tissue uptake at 4 h ([1]; Tumor % ID/g): 0.822 ± 0.13 %ID/g
tissue to tissue ratio at 0.5 h ([1]; Tumor/Blood): 1.1
tissue to tissue ratio at 4 h ([1]; Tumor/Blood): 3.7
tissue to tissue ratio at 0.5 h ([1]; Tumor/Kidney): 0.14
tissue to tissue ratio at 4 h ([1]; Tumor/Kidney): 0.14
tissue to tissue ratio at 0.5 h ([1]; Tumor/Liver): 1.3
tissue to tissue ratio at 4 h ([1]; Tumor/Liver): 1.6

C[C@@H](O)[C@H](NC(=O)[C@@H]1CSSC[C@H](NC(=O)[C@@H](Cc2ccccc2)NC(=O)CC(C(=O)O)N(CCN(CC(=O)O)CC(=O)O)CCN(CC(=O)O)CC(=O)O)C(=O)N[C@@H](Cc2ccc(O)cc2)C(=O)N[C@H](Cc2c[nH]c3ccccc23)C(=O)N[C@@H](CCCCN)C(=O)N[C@@H]([C@@H](C)O)C(=O)N1)C(=O)O (stereo partly drawn) [MP-2148, Tc-99m(CO)3-DTPA′-Tyr-3-Octreotate, metal not drawn]
tissue uptake at 0.5 h ([1]; Blood % ID/g): 0.471 ± 0.035 %ID/g
tissue uptake at 4 h ([1]; Blood % ID/g): 0.114 ± 0.005 %ID/g
tissue uptake at 4 h ([1]; Blood (% ID/g at 4 hours p.i.)): 0.083 %ID/g
tissue uptake at 0.5 h ([1]; Kidney % ID/g): 2.14 ± 0.12 %ID/g
tissue uptake at 4 h ([1]; Kidney % ID/g): 3.14 ± 0.08 %ID/g
tissue uptake at 4 h ([1]; Kidney (% ID/g at 4 hours p.i.)): 3.27 %ID/g
tissue uptake at 0.5 h ([1]; Liver % ID/g): 0.494 ± 0.011 %ID/g
tissue uptake at 4 h ([1]; Liver % ID/g): 0.363 ± 0.022 %ID/g
tissue uptake at 4 h ([1]; Liver (% ID/g at 4 hours p.i.)): 0.19 %ID/g
tissue uptake at 0.5 h ([1]; Pancreas % ID/g): 1.15 ± 0.032 %ID/g
tissue uptake at 4 h ([1]; Pancreas % ID/g): 0.956 ± 0.054 %ID/g
tissue uptake at 4 h ([1]; Pancreas (% ID/g at 4 hours p.i.)): 0.99 %ID/g
tissue uptake at 0.5 h ([1]; Tumor % ID/g): 0.793 ± 0.041 %ID/g
tissue uptake at 4 h ([1]; Tumor % ID/g): 0.769 ± 0.069 %ID/g
tissue uptake at 4 h ([1]; Tumor (% ID/g at 4 hours p.i.)): 1.06 %ID/g
tissue to tissue ratio at 0.5 h ([1]; Tumor/Blood): 1.7
tissue to tissue ratio at 4 h ([1]; Tumor/Blood): 6.7
tissue to tissue ratio at 0.5 h ([1]; Tumor/Kidney): 0.37
tissue to tissue ratio at 4 h ([1]; Tumor/Kidney): 0.25
tissue to tissue ratio at 0.5 h ([1]; Tumor/Liver): 1.6
tissue to tissue ratio at 4 h ([1]; Tumor/Liver): 2.1
Amount of activity in the liver and GI tract compared to [99mTc(CO)3(His-Y3-Octreotate)] [2]: significantly less
Biodistribution characteristics vs iso-DTPA-Y3-Octreotate and n-DTPA-Y3-Octreotate [2]: better biodistribution characteristics
Hepatobiliary uptake and clearance compared to [99mTc(CO)3(His-Y3-Octreotate)] [2]: less hepatobiliary uptake and clearance
Activity of Urine [3]: 10.4 μCi
Metabolism: state of compound in urine by HPLC analysis [3]: essentially intact
Volume of Urine [3]: 1.5 mL
tissue uptake dose at 3 h ([4]; 50 uCi, Adrenals % ID/organ): 0.042 %ID
tissue uptake at 3 h ([4]; 50 uCi, Blood % ID/g): 0.115 %ID/g
tissue uptake dose at 3 h ([4]; 50 uCi, Blood % ID/organ): 1.44 %ID
tissue uptake at 3 h ([4]; 50 uCi, Heart % ID/g): 0.062 %ID/g
tissue uptake dose at 3 h ([4]; 50 uCi, Heart % ID/organ): 0.049 %ID
tissue uptake at 3 h ([4]; 50 uCi, Kidneys % ID/g): 2.98 %ID/g
tissue uptake dose at 3 h ([4]; 50 uCi, Kidneys % ID/organ): 6.82 %ID
tissue uptake at 3 h ([4]; 50 uCi, Liver % ID/g): 0.236 %ID/g
tissue uptake dose at 3 h ([4]; 50 uCi, Liver % ID/organ): 2.35 %ID
tissue uptake at 3 h ([4]; 50 uCi, Muscle % ID/g): 0.058 %ID/g
tissue uptake dose at 3 h ([4]; 50 uCi, Muscle % ID/organ): 6.6 %ID
tissue uptake at 3 h ([4]; 50 uCi, Pancreas % ID/g): 0.916 %ID/g
tissue uptake dose at 3 h ([4]; 50 uCi, Pancreas % ID/organ): 0.762 %ID
tissue uptake at 3 h ([4]; 50 uCi, Spleen % ID/g): 0.081 %ID/g
tissue uptake dose at 3 h ([4]; 50 uCi, Spleen % ID/organ): 0.044 %ID
tissue uptake at 3 h ([4]; 50 uCi, Tumor % ID/g): 1.11 %ID/g
tissue uptake dose at 3 h ([4]; 50 uCi, Tumor % ID/organ): 5.18 %ID
tissue uptake dose at 3 h ([4]; Adrenals % ID/organ): 0.008 %ID
tissue uptake dose at 3 h ([4]; Blood % ID/organ): 1.59 %ID
tissue uptake dose at 3 h ([4]; Heart % ID/organ): 0.057 %ID
tissue uptake dose at 3 h ([4]; Kidneys % ID/organ): 6.24 %ID
tissue uptake dose at 3 h ([4]; Liver % ID/organ): 2.61 %ID
tissue uptake dose at 3 h ([4]; Muscle % ID/organ): 6.93 %ID
tissue uptake dose at 3 h ([4]; Pancreas % ID/organ): 0.052 %ID
tissue uptake dose at 3 h ([4]; Spleen % ID/organ): 0.042 %ID
tissue uptake dose at 3 h ([4]; Tumor % ID/organ): 0.493 %ID
Reduction of uptake in the adrenals in somatostatin receptor-blocked animals [5]: 81%
Reduction of uptake in the pancreas in somatostatin receptor-blocked animals [5]: 95%
Reduction of uptake in the tumor in somatostatin receptor-blocked animals [5]: 90%

Tc-99m(CO)3-His-Tyr-3-Octreotate [MP-2377, reference compound]
Blood (% ID/g at 4 hours p.i.) [2]: 0.03 % ID/g
Kidney (% ID/g at 4 hours p.i.) [2]: 1.64 % ID/g
Liver (% ID/g at 4 hours p.i.) [2]: 0.28 % ID/g
Pancreas (% ID/g at 4 hours p.i.) [2]: 2.67 % ID/g
Tumor (% ID/g at 4 hours p.i.) [2]: 1.00 % ID/g
Activity of Urine [3]: 5.8 μCi
Metabolism: state of compound in urine by HPLC analysis [3]: essentially intact
Volume of Urine [3]: 1.5 mL

Tc-99m(CO)3-iso-DTPA-Tyr-3-Octreotate [MP-2423]
Tumor/Liver [2]: 3
